The target in one assay is HLA-B*53:01. Description: IEDB peptide-MHC binding, purified MHC/competitive/radioactivity; filed as Kd, often an IC50 or EC50 that approximates it; ≥ and ≤ were set here for values at or beyond the usual limits of such assays. Conditions: source organism: Dengue virus 4 Philippines/H241/1956.
A further assay deals with HLA-B*35:01. Described as above. Conditions: source organism: Dengue virus 4 Philippines/H241/1956.
Assay [1] concerns the target HLA-B*07:02. Described as above. Conditions: source organism: Dengue virus 4 Philippines/H241/1956.
The next assay addresses HLA-B*51:01. The description is as above. Conditions: source organism: Dengue virus 4 Philippines/H241/1956.
Assay [2] deals with HLA-B*08:01. Described as above.
Assay [3] concerns the target HLA-B*15:01. Described as above.
A further assay deals with HLA-A*32:01. The description is as above.
For the next assay, the target named is HLA-B*15:03. The description is as above.
The target of a further assay is HLA-A*30:01. The assay is described as above.
Assay [4] concerns the target HLA-A*02:01. Description: IEDB peptide-MHC binding, purified MHC/competitive/fluorescence; filed as Kd, often an IC50 or EC50 that approximates it; ≥ and ≤ were set here for values at or beyond the usual limits of such assays. Conditions: source organism: Salmonella enterica subsp. enterica serovar Typhi.
Assay [5] addresses HLA-A*26:01. The description is as above. Conditions: source organism: Salmonella enterica subsp. enterica serovar Typhi.
Another assay deals with HLA-A*30:02. Description: IEDB peptide-MHC binding, purified MHC/competitive/radioactivity; filed as Kd, often an IC50 or EC50 that approximates it; ≥ and ≤ were set here for values at or beyond the usual limits of such assays. Conditions: source organism: Dengue virus 4 Philippines/H241/1956.
Assay [6] concerns the target HLA-B*08:01. Briefly: IEDB peptide-MHC binding, purified MHC/direct/fluorescence; filed as Kd, often an IC50 or EC50 that approximates it; ≥ and ≤ were set here for values at or beyond the usual limits of such assays.
Another assay deals with HLA-B*58:01. The assay is described as above.
Assay [7] addresses HLA-B*15:01. The assay is described as above.
In a further assay the target is HLA-A*69:01. The assay is described as above.
Another assay has as its target HLA-A*31:01. Described as above.
Assay [8] addresses HLA-A*01:01. Described as above.
The target in another assay is HLA-B*44:02. Described as above.
Assay [9] has as its target HLA-A*02:01. Described as above.
Another assay deals with HLA-A*11:01. Described as above.
The target of the next assay is HLA-A*03:01. Described as above.
In another assay the target is HLA-B*40:01. The description is as above.
In assay [10] the target is HLA-A*26:01. The description is as above.
In another assay the target is HLA-A*24:03. The description is as above.
Assay [11] addresses HLA-B*07:02. The assay is described as above.
The next assay deals with HLA-B*27:05. The description is as above.
In the next assay the target is HLA-A*02:03. Briefly: IEDB peptide-MHC binding, purified MHC/competitive/radioactivity; filed as Kd, often an IC50 or EC50 that approximates it; ≥ and ≤ were set here for values at or beyond the usual limits of such assays. Conditions: source organism: Dengue virus 2 Jamaica/1409/1983.
For assay [12], the target named is HLA-A*01:01. The description is as above. Conditions: source organism: Dengue virus 2 Jamaica/1409/1983.
A further assay concerns the target HLA-A*24:02. Described as above. Conditions: source organism: Dengue virus 4 Philippines/H241/1956.
Another assay concerns the target HLA-A*23:01. The assay is described as above.
[13] abbreviates: source organism: Vaccinia virus WR.
[14] abbreviates: source organism: Dengue virus 4 Philippines/H241/1956.
The mark [15] stands for this setting: source organism: Vaccinia virus Copenhagen.
Setting [16] is: source organism: Giardia lamblia ATCC 50803.
Where [17] appears, read: source organism: Neisseria gonorrhoeae.
Setting [18] is: source organism: Dengue virus 2 Jamaica/1409/1983.
Where [19] appears, read: source organism: Dengue virus 1 Brazil/97-11/1997.

The Kd is the concentration at which binding is half-saturated. In the case of LPDYGELTL, the Kd in the assay with HLA-B*53:01 is 77.1 nM; with HLA-B*35:01, 100 nM; in the assay with HLA-B*07:02 [1], 67.8 nM; with HLA-B*51:01 it was 1230 nM.
For the sequence LTFKACDHI, the equilibrium dissociation constant (Kd) is 838 nM in the assay with HLA-B*08:01 [2] (setting [13]); 973 nM in the assay with HLA-B*15:01 [3] (setting [13]); 18800 nM with HLA-A*32:01 (setting [13]); 845 nM in the assay with HLA-B*15:03 (setting [13]); 81.5 nM with HLA-A*30:01 (setting [13]).
Take ISKNAFSCM: in the assay with HLA-B*15:01 [3] (setting [13]), the dissociation constant Kd was determined as 78.1 nM.
HVAAFSSLI: the dissociation constant (Kd) amounted to 61.3 nM in the assay with HLA-A*02:01 [4] and 57.5 nM with HLA-A*26:01 [5].
In the case of RAKGSRAIWY, the dissociation constant Kd in the assay with HLA-B*15:01 [3] (setting [14]) was 36.1 nM; with HLA-A*30:02, 77 nM.
Take RRLLKFRVE: the Kd with HLA-B*08:01 [2] (setting [15]) was 128 nM; with HLA-B*15:01 [3] (setting [15]), at least 55000 nM; with HLA-A*32:01 (setting [15]) it was at least 34900 nM; with HLA-B*15:03 (setting [15]) it was 14900 nM; with HLA-A*30:01 (setting [15]) it was 1040 nM.
Regarding WSFLEDRVY, the Kd with HLA-B*08:01 [6] (setting [16]) was at least 20000 nM; with HLA-B*58:01 (setting [16]), 484 nM; with HLA-B*15:01 [7] (setting [16]), 42 nM; in the assay with HLA-A*69:01 (setting [16]) it was at least 20000 nM; in the assay with HLA-A*31:01 (setting [16]), at least 20000 nM; with HLA-A*01:01 [8] (setting [16]), 2270 nM. Moreover, the dissociation constant Kd in the assay with HLA-B*44:02 (setting [16]), with HLA-A*02:01 [9] (setting [16]), with HLA-A*11:01 (setting [16]), with HLA-A*03:01 (setting [16]), with HLA-B*40:01 (setting [16]) and with HLA-A*26:01 [10] (setting [16]) was at least 20000 nM in each case. The Kd with HLA-A*24:03 (setting [16]), in the assay with HLA-B*07:02 [11] (setting [16]) and with HLA-B*27:05 (setting [16]) was at least 20000 nM each time.
As for GSDKQVVGQ, the dissociation constant (Kd) with HLA-B*08:01 [6] (setting [17]), in the assay with HLA-B*58:01 (setting [17]), in the assay with HLA-B*15:01 [7] (setting [17]), with HLA-A*69:01 (setting [17]), with HLA-A*31:01 (setting [17]) and with HLA-A*01:01 [8] (setting [17]) was at least 20000 nM throughout. Besides, the equilibrium dissociation constant (Kd) with HLA-B*44:02 (setting [17]), in the assay with HLA-A*02:01 [9] (setting [17]), with HLA-A*11:01 (setting [17]), with HLA-A*03:01 (setting [17]), with HLA-B*40:01 (setting [17]) and with HLA-A*26:01 [10] (setting [17]) was at least 20000 nM throughout. Besides, the Kd with HLA-A*24:03 (setting [17]), with HLA-B*07:02 [11] (setting [17]) and with HLA-B*27:05 (setting [17]) was at least 20000 nM throughout.
ILAAVSVSPL: the dissociation constant Kd was found to be 28.9 nM with HLA-B*15:01 [3] (setting [18]) and 13 nM in the assay with HLA-A*02:03.
IVIGVGDSAL: in the assay with HLA-B*15:01 [3] (setting [14]), the Kd came to 27.8 nM.
On to VEGEGLHKL, for which, in the assay with HLA-B*44:02 (source organism: Dengue virus 1 Singapore/S275/1990), the Kd is at least 20000 nM.
With LESQHIISF, the dissociation constant (Kd) with HLA-B*15:01 [3] (setting [15]) is 57.1 nM; with HLA-B*15:03 (setting [15]) it was 28.4 nM.
Consider TVIDLDPIPY, for which the Kd stood at 1.83 nM in the assay with HLA-B*15:01 [3] (setting [18]) and 1540 nM with HLA-A*01:01 [12].
For LLMRTTWAF, the dissociation constant Kd with HLA-B*08:01 [2] (setting [14]) turned out to be 54.7 nM; with HLA-B*15:01 [3] (setting [14]), 1.08 nM; with HLA-A*24:02, 24.4 nM; in the assay with HLA-A*32:01 (setting [14]), 1.69 nM; with HLA-A*23:01 (setting [14]) it was 75.4 nM.
For KGKAAAFAK, the Kd in the assay with HLA-B*08:01 [2] (setting [13]) was at least 77700 nM; with HLA-B*15:01 [3] (setting [13]), 12000 nM; in the assay with HLA-A*32:01 (setting [13]), at least 56000 nM; with HLA-B*15:03 (setting [13]) it was 1900 nM; with HLA-A*30:01 (setting [13]), 3.12 nM.
With LMLVTPSMAM, the Kd with HLA-B*15:01 [3] (setting [19]) turned out to be 7.08 nM.
FIRYRMHPM: the dissociation constant (Kd) in the assay with HLA-B*08:01 [2] (setting [13]) turned out to be 0.208 nM; in the assay with HLA-B*15:01 [3] (setting [13]) it was 1.22 nM; with HLA-A*32:01 (setting [13]), 14300 nM; with HLA-B*15:03 (setting [13]), 21.6 nM; in the assay with HLA-A*30:01 (setting [13]) it was 2790 nM.
In the case of SIIVLFQRF, the Kd with HLA-B*08:01 [2] (setting [13]) amounted to 8550 nM; with HLA-B*15:01 [3] (setting [13]) it was 1.09 nM.
Consider KSSPETQQM, for which the Kd with HLA-B*08:01 [2] (setting [13]) stood at 2350 nM; in the assay with HLA-B*15:01 [3] (setting [13]), 30.4 nM; with HLA-A*32:01 (setting [13]), 464 nM; with HLA-B*15:03 (setting [13]), 108 nM; with HLA-A*30:01 (setting [13]), 1130 nM.
As for LQRKHGGSL, the results for the Kd with HLA-B*08:01 [2] (setting [14]), with HLA-B*15:01 [3] (setting [14]) and with HLA-B*07:02 [1] were 57.4 nM, 26.2 nM and 58.2 nM, respectively.
As to FPTSRTTWSI, the Kd with HLA-B*53:01 came out at 16.4 nM; with HLA-B*35:01, 327 nM; in the assay with HLA-B*07:02 [1], 55.5 nM; in the assay with HLA-B*51:01 it was 184 nM.
With VIIMAINVF, the figures for the equilibrium dissociation constant (Kd) in the assay with HLA-B*15:01 [3] (setting [13]) and in the assay with HLA-B*15:03 (setting [13]) were 26.4 nM and 2030 nM, respectively.
With KLVMAFIAF, the Kd came to 1.39 nM in the assay with HLA-B*15:01 [3] (setting [19]), 1180 nM with HLA-A*32:01 (setting [19]) and 4820 nM with HLA-A*23:01 (setting [19]).
Regarding KSIEQHPVV, the equilibrium dissociation constant (Kd) in the assay with HLA-B*08:01 [2] (setting [13]) is 11700 nM; in the assay with HLA-B*15:01 [3] (setting [13]), 70.5 nM; with HLA-A*32:01 (setting [13]), 1910 nM; with HLA-B*15:03 (setting [13]), 79.6 nM; in the assay with HLA-A*30:01 (setting [13]) it was 2.7 nM.
As to ITKINTHLA, the equilibrium dissociation constant (Kd) in the assay with HLA-B*08:01 [2] (setting [13]) was at least 22100 nM; with HLA-B*15:01 [3] (setting [13]), 2890 nM; with HLA-A*32:01 (setting [13]) it was at least 77800 nM; with HLA-B*15:03 (setting [13]) it was at least 51400 nM; in the assay with HLA-A*30:01 (setting [13]), 14.9 nM.

The values are drawn from the Immune Epitope Database (IEDB).
